# Measurements published in US10093706.
# Read-outs that look alike come from different tables or passages of the source.
# Legend:
# [1] = biological target: hnRNP-E1 (PCBP1) wild-type (Homo sapiens) (UniProt Q15365); settings: Scatchard
# [2] = biological target: hnRNP-E1(C293S) (Homo sapiens) (UniProt Q15365); settings: no L-homocysteine; Scatchard
# [3] = biological target: hnRNP-E1(G292A) G292A (Homo sapiens) (UniProt Q15365); settings: no L-homocysteine; Scatchard
# Chain of hnRNP-E1(G292A) G292A (Homo sapiens) (Q15365 whole entry A205V/G292A): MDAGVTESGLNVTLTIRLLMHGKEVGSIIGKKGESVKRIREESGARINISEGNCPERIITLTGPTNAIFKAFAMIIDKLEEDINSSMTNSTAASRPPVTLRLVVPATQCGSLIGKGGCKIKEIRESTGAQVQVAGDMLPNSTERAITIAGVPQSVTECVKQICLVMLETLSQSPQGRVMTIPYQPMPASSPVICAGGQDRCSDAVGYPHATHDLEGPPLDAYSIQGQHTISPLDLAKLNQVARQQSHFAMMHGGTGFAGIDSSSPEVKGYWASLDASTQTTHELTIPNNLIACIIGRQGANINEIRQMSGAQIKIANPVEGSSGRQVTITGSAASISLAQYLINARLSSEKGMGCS
# Chain of hnRNP-E1 (PCBP1) wild-type (Homo sapiens) (Q15365 whole entry A205V): as the sequence (Q15365 whole entry A205V/G292A) above, with A292G counted along it
# Chain of hnRNP-E1(C293S) (Homo sapiens) (Q15365 whole entry A205V/C293S): as the sequence (Q15365 whole entry A205V/G292A) above, with A292G, C293S counted along it
substance,measurement,setting,value
18-nt folate receptor-alpha mRNA cis-element,Kd,[1]; 10 uM L-homocysteine,0.89 nM
same,Kd,[1]; 50 uM L-homocysteine,0.47 nM
same,Kd,[1]; no L-homocysteine,1.47 nM
same,Kd,[2],0.27 nM
same,Kd,[3],1.57 nM
